Laboratory results taken from patent publication US20250326860A1.

How the values were obtained:
[1] = target: human CD3 on cells (Jurkat cells, human T cells) (human) (UniProt P07766); test: binding to human CD4+ T cells
human CD3δε (human) = human CD3δε (human) (UniProt P07766); test: binding to CD3δ/ε protein dimer
[2] = target: human CD3 on cells (Jurkat cells, human T cells) (human) (UniProt P07766); test: binding to human CD3+ T cells
[3] = target: human CD20 on cells (human B cells; Raji, SU-DHL-8, SU-DHL-4, A3KAW, NAMALWA) (human) (UniProt P11836); test: binding to Raji cells
Sequence of human CD20 on cells (human B cells; Raji, SU-DHL-8, SU-DHL-4, A3KAW, NAMALWA) (human) (P11836 whole entry): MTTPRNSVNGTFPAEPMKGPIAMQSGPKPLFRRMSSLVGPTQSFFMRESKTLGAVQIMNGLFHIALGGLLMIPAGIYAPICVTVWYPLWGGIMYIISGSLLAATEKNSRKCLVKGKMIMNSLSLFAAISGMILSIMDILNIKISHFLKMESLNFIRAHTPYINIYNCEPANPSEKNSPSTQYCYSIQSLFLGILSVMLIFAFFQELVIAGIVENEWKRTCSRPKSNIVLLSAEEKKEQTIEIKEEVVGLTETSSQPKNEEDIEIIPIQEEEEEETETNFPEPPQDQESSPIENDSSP

[4] = target: human CD3 on cells (Jurkat cells, human T cells) (human) (UniProt P07766); test: binding to human CD8+ T cells
[5] = target: human CD20 on cells (human B cells; Raji, SU-DHL-8, SU-DHL-4, A3KAW, NAMALWA) (human) (UniProt P11836); test: binding to human B cells
[6] = target: cynomolgus monkey CD20 on B cells (cynomolgus monkey) (UniProt M4ZHZ6); test: flow cytometry, monkey B cells
[7] = target: human CD20 on cells (human B cells; Raji, SU-DHL-8, SU-DHL-4, A3KAW, NAMALWA) (human) (UniProt P11836); test: flow cytometry, human B cells

Sequence of human CD3 on cells (Jurkat cells, human T cells) (human) (P07766 23-207): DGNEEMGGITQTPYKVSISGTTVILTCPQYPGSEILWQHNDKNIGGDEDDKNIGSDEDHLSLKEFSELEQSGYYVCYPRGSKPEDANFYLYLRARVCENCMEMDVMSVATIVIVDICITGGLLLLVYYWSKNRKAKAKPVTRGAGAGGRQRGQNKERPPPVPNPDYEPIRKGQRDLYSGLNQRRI

EC50 [1] [µM]	EC50 (human CD3δε (human)) [µM]	EC50 [2] [µM]	EC50 [3] [µM]	EC50 [4] [µM]	EC50 [5] [µM]	max MFI [6] [MFI]	max MFI [7] [MFI]	Substance
0.0131	0.0021	0.0118	0.135	0.0101	0.2	–	–	Plamotamab analog (bispecific antibody)
> 2	–	–	> 8	> 2	–	60.4	1650	IgG1 isotype control antibody
